Measured values: patent publication US6500919B1, “Melanoma associated antigenic polypeptide, epitopes thereof and vaccines against melanoma” (IntroGene B.V., priority 1994, dated 2002)

Key:
HLA-A2.1 = biological target: T1, HLA-A2.1 (Homo sapiens, UniProt P04439, D140Y/D185E/D98H/E176V/E277Q/G131W/G231S/I119V/I121R/I166T/I218V/L300P/L318F/N151K/N90K/P208A/P217A/Q86G/Q94H/R138H/R169H/T345S); assay: HLA-A2.1 peptide binding assay (HLA-A2.1 stabilization on processing defective T2 cells, flow cytometry with mAb BB7.2)
T1 construct: HLA-A2.1 stabilization at the cell surface was determined by flow cytometry using mAb BB7.2; endogenous in cells; host or cells: T2 cells (processing defective, HLA-A2.1+)

[1] = test system: peptide loaded HLA-A2.1+ T2 cells
[2] = biological target: T2, HLA-A2.1 (on processing defective T2 cells) (human); assay: peptide binding assay on processing defective T2 cells
T2 construct: also called MHC HLA-A2.1 molecule

## R-L-M-K-Q-D-F-S-V (RLMKQDFSV)
HLA-A2.1
  binding to the MHC HLA-A2.1 molecule: bind

## M-L-G-T-H-T-M-E-V (MLGTHTMEV)
HLA-A2.1
  binding to the MHC HLA-A2.1 molecule: bind

## V-L-P-D-G-Q-V-I-W-V (VLPDGQVIWV)
HLA-A2.1
  binding to the MHC HLA-A2.1 molecule: bind

## CC(C)C[C@H](NC(=O)[C@H](CCCNC(=N)N)NC(=O)[C@H](CC(C)C)NC(=O)[C@@H](NC(=O)[C@H](C)NC(=O)[C@@H](NC(=O)CNC(=O)[C@H](CC(=O)O)NC(=O)[C@H](CC(C)C)NC(=O)[C@@H](N)CC(C)C)[C@@H](C)O)[C@@H](C)O)C(=O)O [L-L-D-G-T-A-T-L-R-L]
[1]
  recognized by anti-melanoma cytotoxic T lymphocytes in the context of HLA-A2.1: recognized

## LLDGTATLRL (also called gp100 amino acids 457-466) [gp100 peptide LLDGTATLRL]
[2]
  binding result: binds
